From US20260242485A1 (LEPU BIOPHARMA, published 2026) come the findings set out here.

Experiment [1] has as its target T1, hCD16A-158V-his protein (human, UniProt P08637 17-208).
T1 construct: extracellular domain; Bought protein; also called human CD16A-158V-his; Human CD16A-158V (protein)
In words: ELISA, plate-coated his-tagged antigen 2 ug/mL. The protocol:
(§1) In order to determine the binding ability of the chimeric Abs to human CD16A protein, ELISA-based binding assay was performed as followed. […] The mixture was incubated for 1 hour at room temperature (RT). The primary antibody was recognized by a detective antibody against human IgG Fc which was conjugated with horseradish peroxidase (HRP) (Jackson Immuno, Cat. No. 109-035-008). Tetramethylbenzidine (TMB), a substrate of HRP, was added to the wells to visualize the binding signal. After sufficient color development, stop solution was added to the wells. The absorbance of the signal was detected at 450 nm with Envision multilabel plate readers (PerkinElemer). The graph and statistics analysis were generated with four-parameter nonlinear regression curve fit in Graphpad Prism 9 software.
(§2) In order to determine the cross reactivity of the chimeric Abs to cynomolgus CD16, ELISA binding assay was performed as described above. Recombinant cyno CD16 ECD his tag protein (cynoCD16-his, Acro Bio, Cat. No. FC6-C52H9) was used as the coating antigen at 2 μg/mL.
On the technique in general: ELISA stands for enzyme-linked immunosorbent assay.

Experiment [2] has as its target T2, hCD16A-158F-his protein (human, UniProt P08637 17-208).
T2 construct: Bought protein
Kind of experiment: ELISA, plate-coated his-tagged antigen 2 ug/mL. The protocol:
as §1, §2

Experiment [3] addresses T3, human CD16A-158V expressed on CHO-K1 cells (human, UniProt P08637 17-254).
T3 construct: whole, on cells; also called hCD16A-158V; CHO-K1-hCD16A-158V
Kind of experiment: flow cytometry on antigen-expressing CHO-K1 cells. The protocol:
(§3) In order to evaluate the binding activity of the chimeric mAbs to human CD16A expressed on cells, cell-based binding assay was employed as followed. […] The antibody dilutions were incubated with 1×10⁵ indicated cells in the 96-well microplate for one hour at 4° C. The antibodies binding to the antigen on the cell surface were detected with PE fluorophore-conjugated anti-human IgG Fc secondary antibodies (ThermoFisher scientific, Cat. No. 12-4998-82) at a dilution rate of 1:1000. Cells were analyzed by flow cytometer LSRFortessa Cell Analyzer (BD Biosciences). Data were analyzed with Flowjo 10.0 software. The graph and statistics analysis were generated with four-parameter nonlinear regression curve fit in Graphpad Prism 9 software.
(§4) CHO-K1 cells stably expressing cynomolgus CD16 were used in the following test.
A general note: In flow cytometry, cells or beads pass a laser one at a time.

For experiment [4], the target named is T4, human CD16A-158F expressed on CHO-K1 cells (human, UniProt P08637 17-254).
T4 construct: whole, on cells
In words: flow cytometry on antigen-expressing CHO-K1 cells. The protocol:
as §3, §4

In experiment [5] the target is T5, human CD16B-NA1 ECD his tag protein (human, UniProt O75015 17-200).
T5 construct: extracellular domain; Bought protein; also called hCD16B-NA1-his; hCD16B-NA1 protein
Kind of experiment: ELISA, hCD16B-NA1-his coated at 2 ug/mL, OD450. The protocol: as §1
(§5) In order to determine the binding ability of the chimeric Abs to human CD16B protein, ELISA binding assay was performed as previously described. Three spliced isoforms of CD16B including human CD16B-NA1 ECD his tag protein (hCD16B-NA1-his, Acro Bio, Cat: No. CDB-H5227), human CD16B-NA2 ECD his tag protein (hCD16B-NA2-his, Acro Bio, Cat: No. CDB-H82Ea) and human CD16B-SH-his protein, were used as the coating antigens at 2 μg/mL.

The target of experiment [6] is T6, human CD16B-NA2 ECD his tag protein (human, UniProt O75015 17-200).
T6 construct: extracellular domain; Bought protein; also called hCD16B-NA2-his; hCD16B-NA2 protein
In words: ELISA, hCD16B-NA2-his coated at 2 ug/mL, OD450. The protocol:
as §1, §5

Experiment [7] addresses T7, human CD32B expressed on CHO-K1 cells (human, UniProt P31994 43-310).
T7 construct: whole, on cells; also called hCD32B
T7 sequence (looked up): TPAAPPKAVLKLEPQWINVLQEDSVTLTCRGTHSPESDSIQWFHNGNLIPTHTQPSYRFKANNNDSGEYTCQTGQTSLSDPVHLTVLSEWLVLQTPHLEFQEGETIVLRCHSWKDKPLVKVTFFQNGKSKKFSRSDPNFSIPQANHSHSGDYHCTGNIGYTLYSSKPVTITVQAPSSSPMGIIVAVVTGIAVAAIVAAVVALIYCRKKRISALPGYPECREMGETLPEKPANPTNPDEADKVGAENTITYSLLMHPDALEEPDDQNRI
Kind of experiment: flow cytometry, CHO-K1-hCD32B cells, geometric mean. As to the method:
as §3
(§6) To exclude the non-specific binding of the CD16A chimeric antibody to human CD16B and CD32B expressed on cells, cell-based binding assay was performed as described above. Firstly, CHO-K1 cells were stably transferred with one human CD16B spliced isoform hCD16B-NA1 and human CD32B. Then, the cells were incubated with the indicated concentrations of CD16A chimeric antibodies.

The target in experiment [8] is T8, human CD16B-NA1 expressed on CHO-K1 cells (human, UniProt O75015 17-200).
T8 construct: whole, on cells; also called hCD16B-NA1; CHO-K1-hCD16B-NA1
Kind of experiment: flow cytometry, CHO-K1-hCD16B-NA1 cells, geometric mean. As to the method:
as §3, §6

For experiment [9], the target named is T1, hCD16A-158V-his protein. In words: SPR (Biacore 8K), antibody captured on Protein A chip, antigen at 50 nM. The protocol:
(§7) The binding affinity of the chimeric antibodies to human CD16A was determined with Biacore™. Briefly, the antibodies were captured with a Protein A chip. […] The antigen was allowed to dissociate for 500 s. The experiment was carried out on a Biacore™ 8K. Data analysis was carried out using Biacore™ 8K evaluation software.
On the technique in general: In SPR one partner is held on a chip, and binding of the other changes the refractive index at the surface.

Experiment [10] concerns the target T2, hCD16A-158F-his protein. Described as above. As to the method: as §7

T2 sequence (P08637 17-208 limits assumed): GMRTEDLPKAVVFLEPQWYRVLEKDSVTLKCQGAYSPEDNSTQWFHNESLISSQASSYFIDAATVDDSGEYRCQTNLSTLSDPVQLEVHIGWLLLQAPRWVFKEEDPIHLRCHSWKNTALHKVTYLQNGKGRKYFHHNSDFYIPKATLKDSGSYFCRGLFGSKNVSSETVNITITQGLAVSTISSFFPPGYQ
T6 sequence (O75015 17-200 N65S limits assumed): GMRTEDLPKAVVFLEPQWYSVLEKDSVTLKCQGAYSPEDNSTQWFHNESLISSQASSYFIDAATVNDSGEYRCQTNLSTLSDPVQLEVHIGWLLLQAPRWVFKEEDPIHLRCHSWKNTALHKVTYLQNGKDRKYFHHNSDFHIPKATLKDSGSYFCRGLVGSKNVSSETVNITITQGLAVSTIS
T4 sequence (P08637 17-254): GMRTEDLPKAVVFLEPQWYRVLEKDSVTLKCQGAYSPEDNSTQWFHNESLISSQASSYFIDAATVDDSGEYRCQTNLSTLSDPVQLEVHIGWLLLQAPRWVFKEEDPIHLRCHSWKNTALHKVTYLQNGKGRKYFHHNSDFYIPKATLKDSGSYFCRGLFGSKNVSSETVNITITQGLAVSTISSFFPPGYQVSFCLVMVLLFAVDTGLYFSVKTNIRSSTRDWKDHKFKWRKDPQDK
T5 sequence (O75015 other isoform, or with tags, fused parts or gaps limits assumed): as the sequence (O75015 17-200 N65S limits assumed) above, with S20R, S49N, N66D, I90V counted along it
T8 sequence (O75015 other isoform, or with tags, fused parts or gaps): as the sequence (O75015 17-200 N65S limits assumed) above, with S20R, S49N, N66D, I90V counted along it
T1 sequence (P08637 17-208 F176V): as the sequence (P08637 17-208 limits assumed) above, with F160V counted along it
T3 sequence (P08637 17-254 F176V): as the sequence (P08637 17-254) above, with F160V counted along it

B1: 42F5H2-hIgG1 LALAPG (antibody)
heavy: QVQLQQPGAELVRPGASVKLSCKASGYTFTSYWMNWVKQRPGQGLEWIGMIDPSDSETHHNQMFKDKATLTVDKSSSTAYMQLSSLTSEDSAVYYCAKWLPPYAMDYWGQGTSVTVSSASTKGPSVFPLAPSSKSTSGGTAALGCLVKDYFPEPVTVSWNSGALTSGVHTFPAVLQSSGLYSLSSVVTVPSSSLGTQTYICNVNHKPSNTKVDKKVEPKSCDKTHTCPPCPAPEAAGGPSVFLFPPKPKDTLMISRTPEVTCVVVDVSHEDPEVKFNWYVDGVEVHNAKTKPREEQYNSTYRVVSVLTVLHQDWLNGKEYKCKVSNKALGAPIEKTISKAKGQPREPQVYTLPPSREEMTKNQVSLTCLVKGFYPSDIAVEWESNGQPENNYKTTPPVLDSDGSFFLYSKLTVDKSRWQQGNVFSCSVMHEALHNHYTQKSLSLSPGK
light: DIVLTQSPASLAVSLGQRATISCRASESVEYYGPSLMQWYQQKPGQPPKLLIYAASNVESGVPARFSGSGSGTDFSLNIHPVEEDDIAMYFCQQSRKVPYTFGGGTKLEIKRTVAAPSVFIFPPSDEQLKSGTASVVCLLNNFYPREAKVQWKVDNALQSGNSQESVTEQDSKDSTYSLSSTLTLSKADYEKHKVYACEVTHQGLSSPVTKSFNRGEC
notes: also called 42F5H2 chimeric Ab
A word on the EC50: it is the midpoint of the concentration-response curve. Read a low EC50 as an effect from little substance. The term Kd denotes the constant that tells how readily two partners part at equilibrium. A higher Kd goes with weaker binding. As a reminder, the koff is a measure of how fast the partners let go of each other. One may read the kon as a measure of how fast the partners come together. A lower kon goes with slower complex formation. On to B1, for which the EC50 came to 0.11 nM with hCD16A-158V-his protein [1], 0.42 nM in the experiment with hCD16A-158F-his protein [2], 0.47 nM in [3] and 0.5 nM in experiment [4]. Moreover, the binding result in [5] is “no binding (tested: 20 nM)”; in experiment [6] it was “no binding (tested: 20 nM)”; in experiment [7], “no binding (tested: 100 nM)”; in experiment [8] it was “no binding (tested: 100 nM)”. Also, the Kd was determined as 0.303 nM with hCD16A-158V-his protein [9] and 0.226 nM with hCD16A-158F-his protein [10]. Further, the results for the koff with hCD16A-158V-his protein [9] and in the experiment with hCD16A-158F-his protein [10] were 0.00139 s⁻¹ and 0.000873 s⁻¹, respectively. For the same molecule, the values for the on-rate constant (kon) in the experiment with hCD16A-158V-his protein [9] and in the experiment with hCD16A-158F-his protein [10] were 4.59e+06 M⁻¹ s⁻¹ and 3.86e+06 M⁻¹ s⁻¹, respectively.

B2: 37B3G11-hIgG1 LALAPG (antibody)
heavy: QVQLQQPGAELVRPGASVKLSCKASGYTFTTYWMNWVKQRPGQGLEWIGMIDPSDSETHYNQMFKDKATLTVDKSSSTAYMQLSSLTSEDSAVYYCAVPSLYNSNYRFAYWGQGTLVTVSAASTKGPSVFPLAPSSKSTSGGTAALGCLVKDYFPEPVTVSWNSGALTSGVHTFPAVLQSSGLYSLSSVVTVPSSSLGTQTYICNVNHKPSNTKVDKKVEPKSCDKTHTCPPCPAPEAAGGPSVFLFPPKPKDTLMISRTPEVTCVVVDVSHEDPEVKFNWYVDGVEVHNAKTKPREEQYNSTYRVVSVLTVLHQDWLNGKEYKCKVSNKALGAPIEKTISKAKGQPREPQVYTLPPSREEMTKNQVSLTCLVKGFYPSDIAVEWESNGQPENNYKTTPPVLDSDGSFFLYSKLTVDKSRWQQGNVFSCSVMHEALHNHYTQKSLSLSPGK
light: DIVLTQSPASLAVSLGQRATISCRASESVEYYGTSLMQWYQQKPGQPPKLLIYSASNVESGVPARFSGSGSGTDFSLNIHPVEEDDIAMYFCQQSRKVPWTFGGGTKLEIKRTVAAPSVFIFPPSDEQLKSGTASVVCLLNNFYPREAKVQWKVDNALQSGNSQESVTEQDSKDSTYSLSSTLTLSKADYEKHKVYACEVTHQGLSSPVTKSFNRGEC
notes: also called 37B3G11 chimeric Ab
B2: the EC50 with hCD16A-158V-his protein [1] is 0.17 nM; with hCD16A-158F-his protein [2], 1.2 nM; in [3], 0.68 nM; in [4], 0.74 nM. For the same molecule, the binding result in [5] is reported as “no binding (tested: 20 nM)”; in [6], “no binding (tested: 20 nM)”; in experiment [7], “no binding (tested: 100 nM)”; in experiment [8], “no binding (tested: 100 nM)”. Moreover, the Kd came out at 1.26 nM with hCD16A-158V-his protein [9] and 1.62 nM with hCD16A-158F-his protein [10]. In addition, the koff in the experiment with hCD16A-158V-his protein [9] came out at 0.00377 s⁻¹; with hCD16A-158F-his protein [10], 0.00531 s⁻¹. Besides, the values for the kon with hCD16A-158V-his protein [9] and with hCD16A-158F-his protein [10] were 2.98e+06 M⁻¹ s⁻¹ and 3.27e+06 M⁻¹ s⁻¹, respectively.

B3: 23H7E4-hIgG1 LALAPG (antibody)
heavy: QVQLQQPGAELVRPGASVKLSCKASGYTFTSYWLNWVKQRPGQGLEWIGMIDPSDSETHYNQVFKDKATLTVDKSSTTAYMQLSSLTSEDSAVYYCARWMVTKKTFDYWGQGTTLTVSSASTKGPSVFPLAPSSKSTSGGTAALGCLVKDYFPEPVTVSWNSGALTSGVHTFPAVLQSSGLYSLSSVVTVPSSSLGTQTYICNVNHKPSNTKVDKKVEPKSCDKTHTCPPCPAPEAAGGPSVFLFPPKPKDTLMISRTPEVTCVVVDVSHEDPEVKFNWYVDGVEVHNAKTKPREEQYNSTYRVVSVLTVLHQDWLNGKEYKCKVSNKALGAPIEKTISKAKGQPREPQVYTLPPSREEMTKNQVSLTCLVKGFYPSDIAVEWESNGQPENNYKTTPPVLDSDGSFFLYSKLTVDKSRWQQGNVFSCSVMHEALHNHYTQKSLSLSPGK
light: DIVLTQSPASLAVSLGQRATISCRASESVEYYGPSLMQWYQQKPGQPPKLLIYAASNVESGVPARFSGSGSGTDFSLNIHPVEEDDIAMYFCQQSRKVPYTFGGGAKLEIKRTVAAPSVFIFPPSDEQLKSGTASVVCLLNNFYPREAKVQWKVDNALQSGNSQESVTEQDSKDSTYSLSSTLTLSKADYEKHKVYACEVTHQGLSSPVTKSFNRGEC
notes: also called 23H7E4 chimeric Ab
For B3, the concentration for a half-maximal effect (EC50) with hCD16A-158V-his protein [1] stood at 0.13 nM; in the experiment with hCD16A-158F-his protein [2] it was 0.44 nM; in experiment [3], 0.8 nM; in experiment [4], 0.77 nM. Further, the binding result is “no binding (tested: 20 nM)” in [5], “no binding (tested: 20 nM)” in experiment [6], “no binding (tested: 100 nM)” in experiment [7] and “no binding (tested: 100 nM)” in experiment [8]. The Kd in the experiment with hCD16A-158V-his protein [9] stood at 3.81 nM; in the experiment with hCD16A-158F-his protein [10], 2.45 nM. Besides, the figures for the koff with hCD16A-158V-his protein [9] and in the experiment with hCD16A-158F-his protein [10] were 0.0107 s⁻¹ and 0.00772 s⁻¹, respectively. Also, the on-rate constant (kon) with hCD16A-158V-his protein [9] is 2.81e+06 M⁻¹ s⁻¹; with hCD16A-158F-his protein [10], 3.16e+06 M⁻¹ s⁻¹.
